Key:
[1] = target: the molecule itself; experiment: self-association; turbidimetry at different pH values
[2] = target: the molecule itself; experiment: self-association; polymerisation at pH 6, macroscopic formations and SEM
[3] = target: NT, N-terminal domain of major ampullate spidroin (MaSp) 1 from Euprosthenops australis (Euprosthenops australis); experiment: self-association; DLS, 10 mM phosphate buffer + 150 mM NaCl, pH 6.1
[4] = target: NT, N-terminal domain of major ampullate spidroin (MaSp) 1 from Euprosthenops australis (Euprosthenops australis); experiment: self-association; DLS, 100 mM phosphate buffer, pH 6.2
[5] = target: NT, N-terminal domain of major ampullate spidroin (MaSp) 1 from Euprosthenops australis (Euprosthenops australis); experiment: self-association; DLS, 10 mM phosphate buffer + 300 mM NaCl, pH 7.2
[6] = target: NT, N-terminal domain of major ampullate spidroin (MaSp) 1 from Euprosthenops australis (Euprosthenops australis); experiment: self-association; DLS, 10 mM phosphate buffer, pH 7.2
[7] = target: NT, N-terminal domain of major ampullate spidroin (MaSp) 1 from Euprosthenops australis (Euprosthenops australis); experiment: self-association; DLS, 100 mM phosphate buffer, pH 7.2
[8] = target: NT, N-terminal domain of major ampullate spidroin (MaSp) 1 from Euprosthenops australis (Euprosthenops australis); experiment: self-association; DLS, 10 mM phosphate buffer + 150 mM NaCl, pH 7.2
[9] = target: NT, N-terminal domain of major ampullate spidroin (MaSp) 1 from Euprosthenops australis (Euprosthenops australis); experiment: self-association; DLS, 10 mM phosphate buffer + 300 mM NaCl, pH 6.2
[10] = target: NT, N-terminal domain of major ampullate spidroin (MaSp) 1 from Euprosthenops australis (Euprosthenops australis); experiment: self-association; DLS, 10 mM phosphate buffer, pH 6.0

B1: NT5Rep (other)
chain: GSGNSHTTPWTNPGLAENFMNSFMQGLSSMPGFTASQLDDMSTIAQSMVQSIQSLAAQGRTSPNKLQALNMAFASSMAEIAASEEGGGSLSTKTSSIASAMSNAFLQTTGVVNQPFINEITQLVSMFAQAGMNDVSASASAGASAAASAGAPGYSPAPSYSSGGYASSAASAAAAAGQGGPGGYGPAPNQGASSAAAAAAGSGQGPSGPYGTSYQISTQYTQTTTSQGQGYGSSSAGAAAAGAAGAGQGGYGGQGQGGYGQGAGGAAAAAAAAAAAAAAAGQGGQGGGGYGQGGQGGQGGQGQGGYGQGAGSSAAAAAAAAAAAAAAGRGQGGYGPGSGG
notes: Non-natural minispidroin; Made as a C-terminal fusion to His6TrxHis6, tag removed
Question: Does B1 bind [1]?
Answer: Result: binds

B2: NT4Rep (other)
chain: GSGNSHTTPWTNPGLAENFMNSFMQGLSSMPGFTASQLDDMSTIAQSMVQSIQSLAAQGRTSPNKLQALNMAFASSMAEIAASEEGGGSLSTKTSSIASAMSNAFLQTTGVVNQPFINEITQLVSMFAQAGMNDVSASASAGASAAASAGAASGQGGYGGLGQGGYGQGAGSSAAAAAAAAAAAAGGQGGQGQGGYGQGSGGSAAAAAAAAAAAAAAAGRGQGGYGQGSGGNAAAAAAAAAAAAAAAGQGGQGGYGRQSQGAGSAAAAAAAAAAAAAAGSGQGGYGGQGQGGYGQS
notes: Non-natural minispidroin: NT domain plus a repetitive fragment derived from E. australis MaSp1; Made as a C-terminal fusion to His6TrxHis6, tag removed; also called minispidroin NT4Rep
Question: Does B2 bind [2]?
Answer: Result: binds

B3: NT4RepCT (other)
chain: MKASHTTPWTNPGLAENFMNSFMQGLSSMPGFTASQLDDMSTIAQSMVQSIQSLAAQGRTSPNKLQALNMAFASSMAEIAASEEGGGSLSTKTSSIASAMSNAFLQTTGVVNQPFINEITQLVSMFAQAGMNDVSASASAGASAAASAGAASGQGGYGGLGQGGYGQGAGSSAAAAAAAAAAAAGGQGGQGQGGYGQGSGGSAAAAAAAAAAAAAAAGRGQGGYGQGSGGNAAAAAAAAAAAAAAAGQGGQGGYGRQSQGAGSAAAAAAAAAAAAAAGSGQGGYGGQGQGGYGQSSASASAAASAASTVANSVSRLSSPSAVSRVSSAVSSLVSNGQVNMAALPNIISNISSSVSASAPGASGCEVIVQALLEVITALVQIVSSSSVGYINPSAVNQITNVVANAMAQVMGKLAAALEHHHHHH
notes: Non-natural minispidroin: NT, repetitive fragment and C-terminal domain; Made as an N-terminal fusion to His6; also called NT4RepCTHis; minispidroin NT4RepCT
Question: Does B3 bind [2]?
Answer: Result: binds

B4: NT, N-terminal domain of major ampullate spidroin (MaSp) 1 from Euprosthenops australis (protein)
chain: GSGNSHTTPWTNPGLAENFMNSFMQGLSSMPGFTASQLDDMSTIAQSMVQSIQSLAAQGRTSPNKLQALNMAFASSMAEIAASEEGGGSLSTKTSSIASAMSNAFLQTTGVVNQPFINEITQLVSMFAQAGMNDVSA
Question: Which results are given for B4?
Answer: % particles [3]: 96.8%; Size (nm) [3]: 710 nm; % particles [4]: 99.9%; Size (nm) [4]: 4.2 nm; % particles [5]: 99.9%; Size (nm) [5]: 4.3 nm; % particles [6]: 99.8%; Size (nm) [6]: 4.5 nm; % particles [7]: 99.9%; Size (nm) [7]: 4.2 nm; % particles [8]: 99.9%; Size (nm) [8]: 4.1 nm; % particles [9]: 99.9%; Size (nm) [9]: 4.4 nm; % particles [10]: 100%; Size (nm) [10]: 687 nm

Source: patent EP2243792A1 (Spiber Technologies AB, dated 2010)
